Target: 基孔肯雅病毒E2蛋白 (基孔肯雅病毒标准株S27, UniProt Q8JUX5 326-748)
Assay: cell-based or functional assay

基孔肯雅病毒E2蛋白, sequence (Q8JUX5 326-748 limits assumed): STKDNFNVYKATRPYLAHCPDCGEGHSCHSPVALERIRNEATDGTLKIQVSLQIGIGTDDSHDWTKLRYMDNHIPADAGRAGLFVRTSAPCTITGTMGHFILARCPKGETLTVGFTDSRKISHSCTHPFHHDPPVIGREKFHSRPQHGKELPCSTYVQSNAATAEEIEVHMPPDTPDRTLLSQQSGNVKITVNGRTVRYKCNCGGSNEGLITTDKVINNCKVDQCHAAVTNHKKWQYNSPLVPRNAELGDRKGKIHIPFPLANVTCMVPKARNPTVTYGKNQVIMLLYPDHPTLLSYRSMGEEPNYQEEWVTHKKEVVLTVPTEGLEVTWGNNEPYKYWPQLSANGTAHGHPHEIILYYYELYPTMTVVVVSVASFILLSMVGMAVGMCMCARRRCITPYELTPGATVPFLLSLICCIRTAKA

B1: 抗基孔肯雅病毒全人源单克隆抗体8D1 (antibody, human IgG1, kappa, V domains shown)
VH: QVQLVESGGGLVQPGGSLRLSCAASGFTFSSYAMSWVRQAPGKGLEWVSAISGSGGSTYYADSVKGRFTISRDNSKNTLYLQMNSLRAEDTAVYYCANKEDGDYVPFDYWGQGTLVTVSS
VL: DIVMTQSPATLSASVGDRVTITCRASQSISSYLNWYQQKPGKAPKLLIYAASSLQSGVPSRFSGSGSGTDFTLTISSLQPEDFATYYCQQSYFFGPGTKVDIKR
IC50, Vero细胞中和实验 (结晶紫染色, 细胞活率): 0.12 µg/mL
